Molecular target: 53BP1 fragment (a.a. 1221-1718) fused to an adenylate cyclase fragment (two-hybrid) (UniProt Q12888)
Assay: cell-based or functional assay

| Substance | Experiment 1 Average Enrichment [log2] | Experiment 1 Rep 1 Enrichment [log2] | Experiment 1 Rep 2 Enrichment [log2] | Experiment 2 Average Enrichment [log2] | Experiment 2 Rep 1 Enrichment [log2] | Experiment 2 Rep 2 Enrichment [log2] |
| --- | --- | --- | --- | --- | --- | --- |
| i53 + S20D two-hybrid fusion (designed binder) | -0.43 | -0.14 | -0.72 | 0.5 | 0.83 | 0.18 |
| i53 + K29R two-hybrid fusion (designed binder) | -0.01 | -0.07 | 0.05 | 0.28 | 0.45 | 0.1 |
| i53 + N25E two-hybrid fusion (designed binder) | 0.56 | 0.28 | 0.84 | 0.62 | 0.61 | 0.64 |
| i53 + D52E two-hybrid fusion (designed binder) | 0.28 | 0.43 | 0.14 | 0.04 | -0.3 | 0.37 |
| i53 + T55R two-hybrid fusion (designed binder) | -0.06 | 0.11 | -0.22 | 0.12 | 0.19 | 0.05 |
| i53 + R42F two-hybrid fusion (designed binder) | 1.88 | 1.99 | 1.77 | 1.26 | 1.4 | 1.13 |
| i53 + Q40E two-hybrid fusion (designed binder) | 1.37 | 1.67 | 1.08 | 1.18 | 1.84 | 0.52 |
| i53 + E18T two-hybrid fusion (designed binder) | -0.27 | -0.33 | -0.21 | 0.28 | 0.23 | 0.34 |
| i53 + S20N two-hybrid fusion (designed binder) | 0.31 | 0 | 0.61 | -0.25 | 0.12 | -0.61 |
| i53 + A46G two-hybrid fusion (designed binder) | 0.6 | 0.48 | 0.72 | -0.17 | 1.37 | -1.71 |
| i53 + S49I two-hybrid fusion (designed binder) | 0.3 | 0.04 | 0.56 | 0.17 | 0.6 | -0.26 |
| i53 + M1Q two-hybrid fusion (designed binder) | 1.31 | 1.23 | 1.38 | 0.68 | 0.58 | 0.79 |
| i53 + K29L two-hybrid fusion (designed binder) | 0.11 | 0.15 | 0.07 | 0.26 | 0.21 | 0.3 |
| i53 + S57N two-hybrid fusion (designed binder) | 1.34 | 1.72 | 0.96 | 0.69 | 0.82 | 0.56 |
